From publication PMC5384396

Legend:
[1] = molecular target: cynomolgus monkey (cyno) GITR (cynomolgus monkey)
[2] = molecular target: cynomolgus monkey (cyno) GITR (cynomolgus monkey); remark: listed apart in the source

MEDI1873 (Fc fusion)
Jurkat NFκB reporter gene assay with cyno GITR-transfected cells, EC50 [1]: 0.422 nM
Kd [2]: 107 nM
